From patent US20150231240A1, “ANTI-C16ORF54 ANTIBODIES AND METHODS OF USE THEREOF” (priority 2012, published 2015) come the findings set out here.

Assay [1] has as its target T1, human C16orf54 (human, UniProt Q6UWD8 1-224).
T1 construct: also called huC16orf54; hC16orf54
T1 sequence: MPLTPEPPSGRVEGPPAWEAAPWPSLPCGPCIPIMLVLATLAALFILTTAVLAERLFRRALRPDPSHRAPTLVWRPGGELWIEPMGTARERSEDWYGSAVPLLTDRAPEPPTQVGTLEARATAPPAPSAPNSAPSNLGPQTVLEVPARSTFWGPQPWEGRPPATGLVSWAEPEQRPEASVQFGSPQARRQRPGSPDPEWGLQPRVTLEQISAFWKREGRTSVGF
In words: flow cytometry, WSU-FSCCL lymphoma cells (endogenous C16orf54), 3 repeats.

Assay [2] addresses T1, human C16orf54. In words: cell ELISA on huC16orf54-expressing sarcoma cells, purified antibody in 1:4 eight-point dilution from 200 nM, 2 h at 4 C, anti-mouse IgG Fc HRP luminescence. The procedure: Purified anti-huC16orf54 monoclonal antibodies were also tested for binding by ELISA. huC16orf54-expressing sarcoma cells were incubated with an 1:4 eight-point dilution series starting with 200 nM of anti-huC16orf54 antibody for 2 hours at 4° C. After washing, the cells were incubated with a secondary antibody (Jackson Immunologicals Goat×IgG, Fc specific HRP—Product#115-035-071) and detected with SuperSignal® ELISA Pico Chemiluminescent substrate (Thermo Scientific—Product#37069). EC50 values were determined using Graphpad Prism® software. An isotype control, R22-4-26A, is also shown.

Assay [3] deals with T1, human C16orf54. In words: flow cytometry, NCI-H716 colon cancer cells (endogenous C16orf54), 2 repeats.
Assay [4] addresses T1, human C16orf54. Put plainly: flow cytometry, 10 ug/ml antibody, D42M1-huC16orf54 cells. The procedure: Anti-C16orf54 antibodies which bound to human C16orf54 were tested for their reactivity with human C16orf54 and their crossreactivity with C16orf54 from cynomolgous monkeys (cyno C16orf54) using flow cytometry. Sarcoma cells transfected with and expressing human C16orf54 or cyno C16orf54 were washed with PBS with 0.1% BSA, incubated with FcX receptor blocking solution (BioLegend) for 15 minutes, incubated with 10 μg/ml of anti-C16orf54 antibody for 1 hour at 4° C., washed twice with PBS with 0.1% BSA, incubated with 20 μg/ml of R-Phycoerythrin-AffiniPure F(ab′)2 Fragment Goat Anti-Mouse IgG, Fcγ Fragment Specific (Jackson ImmunoResearch) for 30 minutes at 4° C., washed twice with PBS with 0.1% BSA, incubated with the viability dye TO-PRO-3 iodide (Life Technologies), and immediately analyzed on a MACSQuant Analyzer instrument (Miltenyi). For each cell line and anti-C16orf54 antibody, a fold change was derived by dividing the median fluorescence intensity for Phycoerythrin in the live cell population for the anti-C16orf54 antibody by the median fluorescence intensity for Phycoerythrin in the live cell population for the IgG isotype control antibody. A number of anti-C16orf54 antibodies (see, e.g., R29-8-57B, R29-8-136C, R29-7-1C, R29-67-7A, R29-67-4A, and R29-7-2A) bind human C16orf54 and also bind (e.g., are crossreactive with) cyno C16orf54.

Assay [5] deals with T1, human C16orf54. Put plainly: flow cytometry, CFPAC-1 pancreatic cancer cells (endogenous C16orf54), 3 repeats.
The target of assay [6] is T1, human C16orf54. In words: flow cytometry, KARPAS-1106P lymphoma cells (endogenous C16orf54), 1 repeat.
In assay [7] the target is T1, human C16orf54. In words: flow cytometry, Granta-519 lymphoma cells (endogenous C16orf54), 1 repeat.
The target of assay [8] is T2, Human C16-ECD peptide (aa1-31) (human).
T2 construct: Coated on plates in the peptide ELISA; also called human extracellular domain peptide
T2 peptide: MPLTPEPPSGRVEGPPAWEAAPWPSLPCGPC
Put plainly: column head 'Full kinetics (nM)' in the table of the C16orf54 peptide binding assays; method and antigen not described; 4 runs.

Assay [9] addresses T1, human C16orf54. Put plainly: flow cytometry, BxPC-3 pancreatic cancer cells (endogenous C16orf54), 3 repeats.
In assay [10] the target is T3, N-terminal 32 amino acids of huC16orf54 (Homo sapiens, UniProt Q6UWD8).
T3 sequence (Q6UWD8 1-32 limits assumed): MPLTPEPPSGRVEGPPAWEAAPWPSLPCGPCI
Put plainly: Affinity measurements of purified antibodies on OctetQK384. The format is binding. The following applies: purified antibody, streptavidin sensors coated with N-terminal 32 amino acids of huC16orf54 coupled to biotin. How it is done:
Affinity measurements of purified anti-huC16orf54 antibodies were carried out on the OctetQK384® sytem (ForteBio). After coating streptavidin sensors with the N-terminal 32 amino acids of huC16orf54 coupled to biotin at the C-terminus, association and dissociation of purified anti-huC16orf54 antibodies was monitored. KD values were derived using ForteBio's software.

The target in assay [11] is T4, C16orf54 on cell lines and primary samples (Homo sapiens, UniProt Q6UWD8).
T4 sequence (Q6UWD8 1-224): T1 sequence
Put plainly: C16orf54 copy number enumeration by flow cytometry with AlexaFluor647 conjugated antibody. The format is binding. How it is done:
In some assays, human cell lines and primary samples were immunofluorescently stained using an anti-C16orf54 monoclonal antibody R29-7-1C that was conjugated to AlexaFluor647, and copy number of C16orf54 was determined by interpolation on a calibration curve generated by Quantum™ Simply Cellular® bead standards (Bangs Laboratories, Inc.) Copy number results are shown in Table 39 various cell lines and primary samples expressing C16orf54. […]

B1: R29-7-1C (antibody, V domains shown)
VH: DVQLQESGPGLVKPSQSLSLTCTVTGYSITSDYAWNWIRQFPGNKLEWMGYISYSGSIRYNPSLKSRISITRDTSKNQFFLQLNSVTTEDTATYYCAREKYDNYYYAMDYWGQGTSVTVSS
VL: DIVMSQSPSSLAVSVGEKVTLSCKSSQNLLYSTNQKNYLAWYQQKPGQSPKLLIYWASTRESGVPDRFTGSGSGTDFTLTISSVKAEDLAVYYCQQYYSYRTFGGGTKLEIK
notes: Murine monoclonal IgG2a from a hybridoma
For the molecule B1, the “Average MFI fold change relative to isotype control” value stood at 13.7 fold with human C16orf54 [1]; 3.4 fold with human C16orf54 [3]; 1.6 fold in the assay with human C16orf54 [5]; 10.5 fold with human C16orf54 [6]; 3.8 fold in the assay with human C16orf54 [7]; 7 fold with human C16orf54 [9]. The “EC50 (read off the curve)” value in the assay with human C16orf54 [2] was about 0.07 nM. The “Median fold change relative to IgG control” value with human C16orf54 [4] stood at 205 fold. This molecule returned a Kd in assay [8] of 0.77 nM.

B2: R29-7-1C: murine anti-C16orf54 monoclonal antibody, IgG2a; VH SEQ ID NO: 8, VL SEQ ID NO: 10 (antibody, V domains shown)
VH: MRVLILLWLFTAFPGILSDVQLQESGPGLVKPSQSLSLTCTVTGYSITSDYAWNWIRQFPGNKLEWMGYISYSGSIRYNPSLKSRISITRDTSKNQFFLQLNSVTTEDTATYYCAREKYDNYYYAMDYWGQGTSVTVSS
VL: MDSQAQVLMLLLLWVSGTCGDIVMSQSPSSLAVSVGEKVTLSCKSSQNLLYSTNQKNYLAWYQQKPGQSPKLLIYWASTRESGVPDRFTGSGSGTDFTLTISSVKAEDLAVYYCQQYYSYRTFGGGTKLEIK
modifications: R29-7-1C heavy chain variable region; R29-7-1C light chain variable region
Consider B2, for which, in assay [10], the kdis stood at 7.95e-05 ± 8.9e-06 s⁻¹. The molecule further gave an on-rate (kon) in assay [10] of 68100 ± 6200 M⁻¹ s⁻¹. In addition, the “Bang's analysis Average copy #” value is on record as 19,975 (1) in assay [11] (Human cell line KG1/lymphoblast); 29,971 (10) in [11] (Human cell line KG1/myeloblast); 11,198 (1) in assay [11] (Human cell line KG1A); 5,517 (3) in [11] (Human cell line WSU-DLCL2); 4,221 (3) in assay [11] (Human cell line WSU-FSCCL); 3,979 (1) in assay [11] (Primary Sample CLL 1). Further, the “Bang's analysis Average copy #” value in assay [11] (Primary Sample CLL 2) is listed as 10,515 (1); in assay [11] (Primary Sample CLL 3), 12,277 (1); in [11] (Primary Sample CLL 4) it was 11,240 (1); in [11] (Primary Sample Lymphoma 1) it was 10,630 (1); in assay [11] (Primary Sample Lymphoma 2), 34,397 (1); in assay [11] (Primary Sample MM 1), 5,798 (1). Besides, in assay [11] (Primary Sample MM 2), the “Bang's analysis Average copy #” value is recorded as 7,590 (1).
